Results taken from patent CN105330739A.

Target: huVEGF 165 (human)
Assay: indirect ELISA, huVEGF coated at 0.5 ug/ml, four-parameter fit

Sequence of huVEGF 165 (human) (chain, as listed by the source, form in doubt): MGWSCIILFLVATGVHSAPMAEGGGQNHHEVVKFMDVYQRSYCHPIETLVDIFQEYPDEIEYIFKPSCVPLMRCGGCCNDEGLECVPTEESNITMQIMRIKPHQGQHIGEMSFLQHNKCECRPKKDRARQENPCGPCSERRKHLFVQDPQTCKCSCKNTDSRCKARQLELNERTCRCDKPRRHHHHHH

EC50: 0.19 nM
Substance: 商品化贝伐单抗(avastin) (antibody)
